Test [1] concerns the target T1, biotinylated monomeric CD16A antigen (human, UniProt P08637 17-208, limits assumed, biotinylated (site not stated)).
T1 construct: Soluble antigen; also called soluble CD16A antigen
The experiment in a line: ELISA, biotinylated monomeric CD16A titrated on coated construct. As for the experimental part: (§1) For the capturing approach, 96-well ELISA plates (Immuno Maxisorp, Nunc) were coated overnight at 4° C. with His-tagged human EGFR or BCMA extracellular domain at concentrations of 3.0 or 0.4 μg/mL, respectively. After blocking with 3% (w/v) skimmed milk powder dissolved in phosphate buffered saline (PBS), antigen coated plates were used for capturing of different multivalent bispecific engagers at concentrations of 3-5 μg/mL in PBS containing 0.3% (w/v) skimmed milk powder. After washing three times with 300 μL per well of PBS containing 0.1% (v/v) Tween 20, plates were incubated with serial dilutions of biotinylated dimeric or monomeric CD16A antigen in PBS containing 0.3% (w/v) skimmed milk powder for 1.5 h at room temperature. After washing, plates were incubated with the detection conjugate Streptavidin HRP, 1:10,000 diluted in PBS containing 0.3% (w/v) skimmed milk powder for 1 h followed by washing and incubation with tetramethylbenzidine substrate (Seramun) for 1-2 min. Reaction was stopped by addition of 0.5 M H₂SO₄ (100 μL/well). Absorbance was measured at 450 nm using a multiwell plate reader, plotted and EC₅₀ values were determined by fitting a nonlinear regression model to sigmoidal dose-response curves (four parameters logistic fit) using GraphPad Prism software.
(§2) Concentration dependent binding of antibody constructs to coated recombinant CD16A antigen, or of soluble monomeric or dimeric CD16 antigen variants to coated or target antigen captured antibody constructs was analyzed in ELISA. Half maximal binding concentrations (EC₅₀) were determined by fitting a nonlinear regression model to sigmoidal dose-response curves (four parameters logistic fit) using GraphPad Prism software.
In general terms: An ELISA detects its analyte on a solid surface through an enzyme-linked reagent.

For test [2], the target named is T1, biotinylated monomeric CD16A antigen. Nature of the test: ELISA, biotinylated monomeric CD16A titrated on construct captured by coated His-tagged human BCMA extracellular domain. As for the experimental part:
as §1, §2

Test [3] addresses T2, biotinylated dimeric CD16A antigen (human, UniProt P08637 17-208, limits assumed, biotinylated (site not stated)).
T2 construct: Soluble antigen; also called soluble CD16A antigen
The experiment in a line: ELISA, biotinylated dimeric CD16A titrated on construct captured by coated His-tagged human BCMA extracellular domain. As for the experimental part:
as §1, §2

For test [4], the target named is T3, BCMA on MM.1S target cells (UniProt Q02223 1-184, limits assumed).
T3 sequence (looked up): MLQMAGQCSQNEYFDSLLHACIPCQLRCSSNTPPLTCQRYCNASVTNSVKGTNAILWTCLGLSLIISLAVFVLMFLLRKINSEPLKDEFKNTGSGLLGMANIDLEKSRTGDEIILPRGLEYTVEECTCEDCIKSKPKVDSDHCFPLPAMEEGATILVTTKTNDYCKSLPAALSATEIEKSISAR
Nature of the test: cell-based or functional assay.

The target of test [5] is T2, biotinylated dimeric CD16A antigen. The experiment in a line: ELISA, biotinylated dimeric CD16A titrated on coated construct. As for the experimental part: as §1, §2
Test [6] addresses T4, recombinant CD16A 158F fused to monomeric human Fc (human, UniProt P08637 17-208).
T4 construct: also called recombinant CD16 antigen variant; not shown: monomeric human Fc
The experiment in a line: ELISA, construct titrated on coated CD16A 158F fused to monomeric human Fc. As for the experimental part:
To assess binding of EGFR/CD16 or BCMA/CD16 antibodies to coated antigen in ELISA, 96-well ELISA plates (Immuno Maxisorp, Nunc) were coated overnight at 4° C. with recombinant CD16 antigen variants fused to monomeric human Fc at a concentration of 1.5 μg/mL in 100 mM carbonate-bicarbonate buffer. After blocking with 3% (w/v) skimmed milk powder dissolved in phosphate buffered saline (PBS) serial dilutions of bispecific antibody constructs were incubated on the antigen coated plates for 1.5 h at room temperature. […] After washing, plates were incubated with tetramethylbenzidine substrate (Seramun) for 1-2 min. Reaction was stopped by addition of 0.5 M H₂SO₄ (100 μL/well). Absorbance was measured at 450 nm using a multiwell plate reader, plotted and EC₅₀ values were determined by fitting a nonlinear regression model to sigmoidal dose-response curves (four parameters logistic fit) using GraphPad Prism software.
as §2

The target of test [7] is recombinant CD16A 158V fused to monomeric human Fc (human, UniProt P08637 17-208). Nature of the test: ELISA, construct titrated on coated CD16A 158V fused to monomeric human Fc.
Test [8] deals with T5, EGFR on tumor target cells (MCF-7, Daudi, DK-MG, HCT-116) (UniProt P00533 25-1210, limits assumed). The experiment in a line: cell-based or functional assay.
For test [9], the target named is T2, biotinylated dimeric CD16A antigen. Nature of the test: ELISA, biotinylated dimeric CD16A titrated on construct captured by coated His-tagged human EGFR extracellular domain. As for the experimental part:
as §1, §2

For test [10], the target named is T1, biotinylated monomeric CD16A antigen. Nature of the test: ELISA, biotinylated monomeric CD16A titrated on construct captured by coated His-tagged human EGFR extracellular domain. As for the experimental part: as §1, §2
The target of test [11] is T5, EGFR on tumor target cells (MCF-7, …). Nature of the test: cell-based or functional assay. The source holds these as a separate data set.
In test [12] the target is CD16A on primary human NK cells (human, UniProt P08637 17-254). The experiment in a line: cell-based or functional assay.
For test [13], the target named is T5, EGFR on tumor target cells (MCF-7, …). The experiment in a line: cell-based or functional assay. This is another data set of the same source.

Like-named read-outs stand apart in the source and are kept apart here.

Usually EC50 stands for the concentration needed to bring the measured effect to its halfway point.

T1 sequence (P08637 17-208 limits assumed): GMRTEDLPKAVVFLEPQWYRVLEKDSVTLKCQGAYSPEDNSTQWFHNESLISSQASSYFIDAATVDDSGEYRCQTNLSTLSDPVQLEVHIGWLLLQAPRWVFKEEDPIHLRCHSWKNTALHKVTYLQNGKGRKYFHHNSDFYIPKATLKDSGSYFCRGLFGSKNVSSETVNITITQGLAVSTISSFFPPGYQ
T2 sequence (P08637 17-208 limits assumed): as above
T4 sequence (P08637 17-208): as the sequence (P08637 17-208 limits assumed) above
recombinant CD16A 158V fused to monomeric human Fc, sequence (P08637 17-208 F176V): as the sequence (P08637 17-208 limits assumed) above, with F160V counted along it
CD16A on primary human NK cells, sequence (P08637 17-254 limits assumed): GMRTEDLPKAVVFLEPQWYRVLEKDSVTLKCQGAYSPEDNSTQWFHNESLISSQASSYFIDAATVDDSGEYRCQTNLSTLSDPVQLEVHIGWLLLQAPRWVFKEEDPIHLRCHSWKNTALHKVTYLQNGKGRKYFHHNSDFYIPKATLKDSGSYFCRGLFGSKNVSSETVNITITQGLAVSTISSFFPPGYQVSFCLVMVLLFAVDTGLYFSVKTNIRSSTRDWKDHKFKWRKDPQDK

B1: Bi-scDb-Fc_01 (bispecific antibody, human IgG1)
chain: EVQLLESGGGLVQPGGSLRLSCAASGFTFSNYDMAWVRQAPGKGLEWVSSISTRGDITSYRDSVKGRFTISRDNSKNTLYLQMNSLRAEDTAVYYCARQDYYTDYMGFAYWGQGTLVTVSSGGGGSGGGGSGGGGSAIQMTQSPSSLSASVGDRVTITCRASEDIYNGLAWYQQKPGKAPKLLIYGASSLQDGVPSRFSGSGSGTEFTLTISSLQPEDEATYYCAGPHKYPLTFGGGTKVEIKEPKSCDKTHTCPPCPAPEFEGGPSVFLFPPKPKDTLMISRTPEVTCVVVAVSHEDPEVKFNWYVDGVEVHNAKTKPREEQYNSTYRVVSVLTVLHQDWLNGKEYKCKVSNKALPAPIEKTISKAKGQPREPQVYTLPPSREEMTKNQVSLTCLVKGFYPSDIAVEWESNGQPENNYKTTPPVLDSDGSFFLYSKLTVDKSRWQQGNVFSCSVMHEALHNHYTQKSLSLSPGGGGGSGGGGSSYVLTQPSSVSVAPGQTATISCGGHNIGSKNVHWYQQRPGQSPVLVIYQDNKRPSGIPERFSGSNSGNTATLTISGTQAMDEADYYCQVWDNYSVLFGGGTKLTVLGGSGGSQVQLVQSGAEVKKPGESLKVSCKASGYTFTSYYMHWVRQAPGQGLEWMGAIEPMYGSTSYAQKFQGRVTMTRDTSTSTVYMELSSLRSEDTAVYYCARGSAYYYDFADYWGQGTLVTVSSGGSGGSGGSGGSGGSGGSSYVLTQPSSVSVAPGQTATISCGGHNIGSKNVHWYQQRPGQSPVLVIYQDNKRPSGIPERFSGSNSGNTATLTISGTQAMDEADYYCQVWDNYSVLFGGGTKLTVLGGSGGSQVQLVQSGAEVKKPGESLKVSCKASGYTFTSYYMHWVRQAPGQGLEWMGAIEPMYGSTSYAQKFQGRVTMTRDTSTSTVYMELSSLRSEDTAVYYCARGSAYYYDFADYWGQGTLVTVSS
notes: Anti-BCMA scFv - silenced Fc - anti-CD16A scDb
As for B1, the EC50 in [1] is 3.4 nM; in [2] it was 1.72 nM; in test [3] it was 0.64 nM; in [5] it was 1.14 nM; in [6], 0.24 nM; in [7], 0.17 nM. Moreover, the “EC50 [pM], 4 h calcein-release cytotoxicity on BCMA+ MM.1S target cells, NK cells E:T 5:1” value in test [4] was 1.1 pM. In addition, the “Emax [%], 4 h calcein-release cytotoxicity on BCMA+ MM.1S target cells, NK cells E:T 5:1” value in test [4] is 51.2%.

B2: Bi-scDb-Fc_02 (bispecific antibody, human IgG1)
chain: QVQLQESGPGLVKPSETLSLTCTVSGGSVSSGSYYWSWIRQPPGKGLEWIGYIYYSGSTNYNPSLKSRVTISVDTSKNQFSLKLSSVTAADTAVYYCARNPISIPAFDIWGQGTMVTVSSGGSGGSGGSGGSGGSGGSQPVLTQPPSVSVAPGKTARITCGGNNIGSKSVHWYQQKPGQAPVLVIYYDSDRPSGIPERFSGSNSGNTATLTISRVEAGDEADYYCQVWDTSSDHVLFGGGTKLTVLEPKSCDKTHTCPPCPAPEFEGGPSVFLFPPKPKDTLMISRTPEVTCVVVAVSHEDPEVKFNWYVDGVEVHNAKTKPREEQYNSTYRVVSVLTVLHQDWLNGKEYKCKVSNKALPAPIEKTISKAKGQPREPQVYTLPPSREEMTKNQVSLTCLVKGFYPSDIAVEWESNGQPENNYKTTPPVLDSDGSFFLYSKLTVDKSRWQQGNVFSCSVMHEALHNHYTQKSLSLSPGGGGGSGGGGSSYVLTQPSSVSVAPGQTATISCGGHNIGSKNVHWYQQRPGQSPVLVIYQDNKRPSGIPERFSGSNSGNTATLTISGTQAMDEADYYCQVWDNYSVLFGGGTKLTVLGGSGGSQVQLVQSGAEVKKPGESLKVSCKASGYTFTSYYMHWVRQAPGQGLEWMGAIEPMYGSTSYAQKFQGRVTMTRDTSTSTVYMELSSLRSEDTAVYYCARGSAYYYDFADYWGQGTLVTVSSGGSGGSGGSGGSGGSGGSSYVLTQPSSVSVAPGQTATISCGGHNIGSKNVHWYQQRPGQSPVLVIYQDNKRPSGIPERFSGSNSGNTATLTISGTQAMDEADYYCQVWDNYSVLFGGGTKLTVLGGSGGSQVQLVQSGAEVKKPGESLKVSCKASGYTFTSYYMHWVRQAPGQGLEWMGAIEPMYGSTSYAQKFQGRVTMTRDTSTSTVYMELSSLRSEDTAVYYCARGSAYYYDFADYWGQGTLVTVSS
notes: Anti-EGFR scFv - silenced Fc - anti-CD16A scDb; Four anti-CD16A and two anti-EGFR Fv domains
For B2, the EC50 in [1] worked out at 3.1 nM; in [9], 0.79 nM; in test [10] it was 1.74 nM; in test [5] it was 0.97 nM; in [6], 0.13 nM; in test [7], 0.11 nM. Also, the “Emax [%], 4 h calcein-release cytotoxicity on Daudi target cells, NK cells E:T 5:1” value is 18.4% in test [8] and 32.6% in [11]. Also, the “EC50 [pM], 4 h calcein-release cytotoxicity on Daudi target cells, NK cells E:T 5:1” value in [11] was 20.5 pM. Moreover, in test [12], the “Emax [%], 4 h calcein-release NK cell fratricide assay, E:T 1:1” value is 23%. For the same molecule, in test [13], the “EC50 [pM], 4 h calcein-release cytotoxicity on MCF-7 target cells, NK cells E:T 5:1” value is 1.9 pM. For the same molecule, the “Emax [%], 4 h calcein-release cytotoxicity on MCF-7 target cells, NK cells E:T 5:1” value in test [13] is 32.9%.

Source of the values: patent publication US20240376208A1 (AFFIMED, published 2024).
